Assay: soluble on expression in E. coli; label from the status in PepcDB or PDB records

| Sequence | soluble on expression in E. coli |
| --- | --- |
| AAADSTSMSYSVTLTGPGPWGFRLQGGKDFNMPLTISRITPGSKAAQSQLSQGDLVVAIDGVNTDTMTHLEAQNKIKSASYNLSLTLQKSKRPIPISTTAPPVQTPLPVIPHQKDPALDTNGSLVAPSPSPEARASPGTPGTPELRPTFSPAFSRPSAFSSLAEASDPGPPRASLRAKTSPEGARDLLGPKALPGSSQPRQYNNPIGLYSAETLREMAQMYQMSLRGKASGVGLPGGSLPIKDLAVDSASPVYQAVIKSQNKPEDEADEWARRSSNLQSRSFRILAQMTGTEFMQDPDEEALRRSSTPIEHAPVCTSQATTPLLPASAQPPAAASPSAASPPLATAAAHTAIASASTTAPASSPADSPRPQASSYSPAVAASSAPATHTSYSEGPAAPAPKPRVVTTASIRPSVYQPVPASTYSPSPGANYSPTPYTPSPAPAYTPSPAPAYTPSPVPTYTPSPAPAYTPSPAPNYNPAPSVAYSGGPAEPASRPPWVTDDSFSQKFAPGKSTTSISKQTLPRGGPAYTPAGPQVPPLARGTVQRAERFPASSRTPLCGHCNNVIRGPFLVAMGRSWHPEEFTCAYCKTSLADVCFVEEQNNVYCERCYEQFFAPLCAKCNTKIMGEVMHALRQTWHTTCFVCAACKKPFGNSLFHMEDGEPYCEKDYINLFSTKCHGCDFPVEAGDKFIEALGHTWHDTCFICAVCHVNLEGQPFYSKKDRPLCKKHAHTINL | soluble |
| AAKHHFDEIHYLDIVDCNGGDHHKAFATNFNPEINIREITQKGKYWENGRWIETEPQEIHKTLTYPSIGERESYLLYHEELESLVKNFPTIKRARFWMTFGQEYLTHLRVMQNIGMTRIDPIMYNGVEIVPIQFLKAVLPNPGDLGENYTGETSIGCRIRGIRDGKERTYYIWNNCSHEVAYKETGTQG | not soluble |
| AALDDLIDTLGECEDTNKDDPPYTGPVVLDPMDSTYLEALGIKEGTIPPEYRKLLEKNEAITGPLPDSPKPMGIDHAIDALSSDFT | soluble |
| ADDAKPRVKVPSSAKAGETVTVKALISHKMESGQRKDADGKLIPRSIINRFTCELNGVNVVDVAIDPAVSTNPYFEFDAKVDAAGEFKFTWYDDDGSVYEDVKPIAVA | soluble |
| ADQRIKVAKPVVEMDGDEMTRIIWQFIKEKLILPHVDVQLKYFDLGLPNRDQTNDQVTIDSALATQKYSVAVKCATITPDEARVEEFKLKKMWKSPNGTIRNILGGTVFREPIICKNIPRLVPGWTKPITIGRHAHGDQYKATDFVVDRAGTFKIVFTPKDGSSAKQWEVYNFPAGGVGMGMYNTDESISGFAHSCFQYAIQKKWPLYMSTKNTILKAYDGRFKDIFQEIFEKHYKTDFDKYKIWYEHRLIDDMVAQVLKSSGGFVWACKNYDGDVQSDILAQGFGSLGLMTSVLVCPDGKTIEAEAAHGTVTRHYREHQKGRPTSTNPIASIFAWTRGLEHRGKLDGNQDLIRFAQTLEKVCVETVESGAMTKDLAGCIHGLSNVKLNEHFLNTSDFLDTIKSNLDRALGRQ | soluble |
| ADVHDKATRSKNMRAIATRDTAIEKRLASLLTGQGLAFRVQDASLPGRPDFVVDEYRCVIFTHGCFWHHHHCYLFKVPATRTEFWLEKIGKNVERDRRDISRLQELGWRVLIVWECALRGREKLTDEALTERLEEWICGEGASAQIDTQGIHLLA | soluble |
| ADVPAGVQLADKQTLVRNNGSEVQSLDPHKIEGVPESNVSRDLFEGLLISDVEGHPSPGVAEKWENKDFKVWTFHLRENAKWSDGTPVTAHDFVYSWQRLADPNTASPYASYLQYGHIANIDDIIAGKKPATDLGVKALDDHTFEVTLSEPVPYFYKLLVHPSVSPVPKSAVEKFGDKWTQPANIVTNGAYKLKNWVVNERIVLERNPQYWDNAKTVINQVTYLPISSEVTDVNRYRSGEIDMTYNNMPIELFQKLKKEIPNEVRVDPYLCTYYYEINNQKAPFNDVRVRTALKLALDRDIIVNKVKNQGDLPAYSYTPPYTDGAKLVEPEWFKWSQQKRNEEAKKLLAEAGFTADKPLTFDLLYNTSDLHKKLAIAVASIWKKNLGVNVNLENQEWKTFLDTRHQGTFDVARAGWCADYNEPTSFLNTMLSDSSNNTAHYKSPAFDKLIADTLKVADDTQRSELYAKAEQQLDKDSAIVPVYYYVNARLVKPWVGGYTGKDPLDNIYVKNLYIIKH | soluble |
| AEFQVTSNEIKTGEQLTTSHVFSGFGCEGGNTSPSLTWSGVPEGTKSFAVTVYDPDAPTGSGWWHWTVVNIPATVTYLPVDAGRRDGTKLPTGAVQGRNDFGYAGFGGACPPKGDKPHHYQFKVWALKTEKIPVDSNSSGALVGYMLNANKIATAEITPVYEIKLE | soluble |
| AESSADKFKRQHMDTEGPSKSSPTYCNQMMKRQGMTKGSCKPVNTFVHEPLEDVQAICSQGQVTCKNGRNNCHKSSSTLRITDCRLKGSSKYPNCDYTTTDSQKHIIIACDGNPYVPVHFDASV | soluble |
| AFSFAAEHGLELDKVDIDLTDKAAMQDGARTFANYCMGCHSAKFQRYERVADDLGIPHELMLEKLVFTGAKIGDHMQIGMKPSDAKTWFGAAPPDLTLVARVRGTDWLYTYLRSFYEDPSRPYGVNNKVFPNVGMPNVLVGLQGNQVVGCKQVQTVVDGKKQFDPLTGSPLTHEACDQLTITPNSGTLTAEQFDEKVKNLVTFLAYSANP | not soluble |
| AFTCHCRRSCYSTEYSYGTCTVMGINHRFCCL | soluble |
| AGLKLMGAPVKLTVSQGQPVKLNCSVEGMEEPDIQWVKDGAVVQNLDQLYIPVSEQHWIGFLSLKSVERSDAGRYWCQVEDGGETEISQPVWLTVEGVPFFTVEPKDLAVPPNAPFQLSCEAVGPPEPVTIVWWRGTTKIGGPAPSPSVLNVTGVTQSTMFSCEAHNLKGLASSRTATVHLQ | soluble |
| AHDNVVIFGDSMVADPLVSEVITGRLSSQPHCPHSPTSYAEIAAKRLGLESRNFSCAGAQVHIGGPFLKTSFIAQIDTAIAAGALDTHTRRVWITQGFNDAWSGHPAAQVVATMSEVIGRIRAHAPNARIQIVGYPQITHQGQLCLVR | not soluble |
| AHHHHHHGSAGVRLVGVWKQFGSFTAVKDLTLEVRDGEFLVLLGPSGCGKTTTLRMIAGLEEPTKGQIYIGDKLVADPEKGVFVPPKDRDIAMVFQSYALYPHMTVYENIAFPLKLRKVPKQEIDKRVREVAEMLGLTELLNRKPRELSGGQRQRVALGRAIVRRPQVFLMDEPLSNLDAKLRVKMRAELKKLQKQLGVTTIYVTHDQVEAMTMGDRIAVMNQGVLQQVGTPEEVYEKPANTFVAGFIGSPPMNFLDATITEDGFLDFGEFRLKLLPDQFEVLQDYVGKEVIFGIRPEDIYDALFAQVKIPGENMARGVVDIIENLGGEKIVHISIGGLIVTAKFPGESRVKEGDEIDIVFDMKKIHIFNKKTGKAIL | soluble |
| AHHHHHHGSDKVYLTWWQVDRAIFALAEKLREYKPDVIVGIARGGLIPAVRLSHILGDIPLKVIDVKFYKGIEERGEKPVITIPIHGDLKDKKVVIVDDVSDTGKTLEVVIEEVKKLGAKEVKVACLAMKPWTSVVPDYYVFRTEKWIVFPWEEFPVIERE | not soluble |
| AHHHHHHGSIIRGDEPEQKALLRKLYRAGNYFMMGDEAIAYGAIFAGCRFYAGYPITPSSEIAETMARELPKVGGYYLQMEDEIASIAAIIGASWTGLKAMTATSGPGFSLMQENIGYAVMTETPVVIVDVQRSGPSTGQATKGAQGDFFQARWGTHGDHPIIAVSPISVEDAFWETIRAFNIAEQLRTPVIVLFDGILGHTREQIRIPDPDEVEISYRKLPRNEEEAKLPFGDPHGDGVPPMPIFGKGYFTHVTGSTHKENGLRDVYTPEVHDRLVRRLHKKIEKNRHIYEKYNEYFTDDAEILVVSWGVSARPSLGAVKKAREEGIKAGLFVPKTVHPFPGEKMRELGKKVRAILVPEMNLGQLILEVQRFVNDDVILKGVNKIGGVPITVEEILREIRGVA | not soluble |
| AHHHHHHGSKILVVAPCLLTPFYVYRGPKDKEYKTSSELRKLLAELSDEWFIFLYPCPELLAVGWPRPPMSREVLERLGTRERSKIIADFIGRVLTEEKPEKVVFVGVKGSPTCGVFTTTSSNPDEFPYVAVQEFFYLSKEERLRKYKELTKNFKVINAPGLLFEILMARFPEAIFVEFDKDNIEESIRRIREVVKE | soluble |
| AHHHHHHGSKPKVFITRAIPENGINMLEEEFEVEVWEEEREIPREKLLEKVKDVDALVTMLSERIDQEVFENAPRLRIVANYAVGYDNIDVEEATRRGIYVTNTPDVLTNATADHAFALLLATARHVVKGDKFVRSGEWKRKGIAWHPKWFLGYELYGKTIGIVGFGRIGQAIARRAKGFNMRILYYSRTRKSQAEKELGAEYRPLEEVLKESDFVILAVPLTKETMYMINEERLKLMKPTAILVNIARGKVVDTKALIKALKEGWIAGAGLDVFEEEPYYNEELFSLDNVVLTPHIGSATFEAREAMAELVARNLIAFKRGEIPPTLVNKEVIKIRKPGFNEQ | not soluble |
| AHHHHHHGSNKRFPFPVGEPDFIQGDEAIARAAILAGCRFYAGYPITPASEIFEAMALYMPLVDGVVIQMEDEIASIAAAIGASWAGAKAMTATSGPGFSLMQENIGYAVMTETPVVIVDVQRSGPSTGQPTLPAQGDIMQAIWGTHGDHSLIVLSPSTVQEAFDFTIRAFNLSEKYRTPVILLTDAEVGHMRERVYIPNPDEIEIINRKLPRNEEEAKLPFGDPHGDGVPPMPIFGKGYRTYVTGLTHDEKGRPRTVDREVHERLIKRIVEKIEKNKKDIFTYETYELEDAEIGVVATGIVARSALRAVKMLREEGIKAGLLKIETIWPFDFELIERIAERVDKLYVPEMNLGQLYHLIKEGANGKAEVKLISKIGGEVHTPMEIFEFIRREFK | soluble |
| AHHHHHHGSPCYNLKNKVAIVTGGGQGIGAAIAQLFAENGAKVVLAEIDEEAGLEREAMLRERGLDVTFIKTDVADEESVKNMVKKTVELYGGVDILVNNAAIMSVKSIFERTLEEWERVIRVNLTGPYICSRYAAEEMIKRGGGVIINIASTRALMSEPDTEPYSASKGGLLALTHSLAISLAKYRIRVVAVSPGWIETSRWKKSKLRSEPKLRPIDHEQHPAGRVGDPMDIAHICAFLADNEKAGFITGVNFVVDGGMTVKMIYAD | not soluble |
| AHHHHHHGSPDVYEPIMGAFSLARRLWKMIVEKKGLPTGDDVASLLENLGFERVCTGSGLAVFRNRFVIALLIPRENMIVVDFLSSSGELSDALELIAYYDKEIECYVVEILPSNELEYEENLGIEPVIIDGKTFELRSYPVLGDFKQGKDKVVLKIDREVYELWKESGKLDVCPVCGGHLRWKQGKALCTECGIEVVVDEEH | soluble |
| AIAASGKRKGLSFDDKKTRLLELFNETCDFYTLKELEKIAPKLKGIITQSVKDVLQSLVDDDLVNSDKCGVQTIYWCLPSEAVAKRQRRLDALQQQLAEKRQKLTALQRQLVQVQAGREDSVERTAVLERLAACEAAWRERQRTLESYLECDPDVLAQRETETKTLIEQANRWTDNLYVIRSYVQRNLGVDLDLFDQQFELKPALQYLE | soluble |
| AIAHAASFRDCKAWQSDGLPLSSSSNEACKLYDAILSQYVTWRNDETLGGIEGCITSIKAADPDFVMGHVISTGLELVGTGSSVLRDERLASAVRRTVELADTQQLTSREKNHVKAVQLFSKGSVHRNLTFMFNG | soluble |

— the DeepSol protein solubility set
